T1: GFP-9S library array, motif 4 ND N98T;D124F (synthetic construct, N98T;D124F)
T1 chain: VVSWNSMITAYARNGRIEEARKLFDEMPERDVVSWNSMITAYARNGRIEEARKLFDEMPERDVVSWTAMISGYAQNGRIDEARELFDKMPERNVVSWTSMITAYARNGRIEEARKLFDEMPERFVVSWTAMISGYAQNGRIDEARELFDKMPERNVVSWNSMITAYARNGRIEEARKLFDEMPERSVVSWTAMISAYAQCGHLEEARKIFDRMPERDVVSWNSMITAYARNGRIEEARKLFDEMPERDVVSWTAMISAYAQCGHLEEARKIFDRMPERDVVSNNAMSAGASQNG

T2: 9S-S2 PPR (synthetic construct)
T2 chain: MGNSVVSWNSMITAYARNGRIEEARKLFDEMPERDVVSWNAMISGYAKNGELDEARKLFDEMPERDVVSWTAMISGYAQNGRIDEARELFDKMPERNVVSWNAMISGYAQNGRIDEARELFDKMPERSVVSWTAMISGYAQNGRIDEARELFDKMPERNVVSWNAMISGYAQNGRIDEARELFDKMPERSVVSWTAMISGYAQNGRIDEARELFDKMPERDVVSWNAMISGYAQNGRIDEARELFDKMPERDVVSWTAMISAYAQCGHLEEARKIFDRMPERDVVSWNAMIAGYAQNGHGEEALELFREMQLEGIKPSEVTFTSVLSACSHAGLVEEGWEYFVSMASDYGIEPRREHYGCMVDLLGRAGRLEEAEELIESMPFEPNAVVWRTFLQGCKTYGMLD

T3: 9S (synthetic construct)
T3 chain: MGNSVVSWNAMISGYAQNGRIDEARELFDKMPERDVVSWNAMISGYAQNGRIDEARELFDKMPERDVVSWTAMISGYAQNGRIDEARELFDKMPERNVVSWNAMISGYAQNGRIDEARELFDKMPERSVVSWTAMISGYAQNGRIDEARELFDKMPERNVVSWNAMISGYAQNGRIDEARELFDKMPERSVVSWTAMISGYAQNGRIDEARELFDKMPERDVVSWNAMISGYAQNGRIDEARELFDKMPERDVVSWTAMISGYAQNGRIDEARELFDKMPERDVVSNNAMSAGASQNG

T4: 9P-S2 (synthetic construct)
T4 chain: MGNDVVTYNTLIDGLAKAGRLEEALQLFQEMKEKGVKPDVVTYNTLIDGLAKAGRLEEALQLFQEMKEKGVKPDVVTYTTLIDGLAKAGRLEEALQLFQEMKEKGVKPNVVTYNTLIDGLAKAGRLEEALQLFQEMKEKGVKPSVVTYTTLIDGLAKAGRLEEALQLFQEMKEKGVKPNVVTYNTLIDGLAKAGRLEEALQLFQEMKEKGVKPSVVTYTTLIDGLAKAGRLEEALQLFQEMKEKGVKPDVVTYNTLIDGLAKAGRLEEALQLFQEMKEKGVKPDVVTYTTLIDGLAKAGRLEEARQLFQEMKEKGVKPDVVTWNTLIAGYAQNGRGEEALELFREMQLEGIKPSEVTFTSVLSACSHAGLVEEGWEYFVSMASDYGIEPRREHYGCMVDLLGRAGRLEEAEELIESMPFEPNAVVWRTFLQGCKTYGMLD

T5: 9S-E2 (synthetic construct)
T5 chain: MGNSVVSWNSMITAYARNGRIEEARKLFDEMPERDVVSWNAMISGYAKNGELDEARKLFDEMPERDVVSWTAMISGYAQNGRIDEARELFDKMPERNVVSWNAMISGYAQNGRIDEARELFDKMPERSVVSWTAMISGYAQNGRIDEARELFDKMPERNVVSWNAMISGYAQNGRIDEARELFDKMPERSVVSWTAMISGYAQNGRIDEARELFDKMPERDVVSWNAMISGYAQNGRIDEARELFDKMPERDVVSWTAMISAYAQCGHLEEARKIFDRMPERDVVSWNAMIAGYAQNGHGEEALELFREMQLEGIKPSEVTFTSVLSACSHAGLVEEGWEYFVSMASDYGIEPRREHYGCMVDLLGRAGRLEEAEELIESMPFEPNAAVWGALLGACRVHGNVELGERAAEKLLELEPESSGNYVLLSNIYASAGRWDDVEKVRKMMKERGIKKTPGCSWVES


Key:
[1] = biological target: T1, GFP-9S library array, motif 4 ND …; assay: high-throughput RNA pulldown from lysate on Ni-NTA beads; HRP: 50 mM Tris pH 8, 150 mM NaCl, 1 mM beta-mercaptoethanol, 50 ug/ml BSA, 3 ug/ml yeast RNA, 0.5% heparin; ITC and FP: Tris pH 8, 200 mM KCl, 5% glycerol; MST: 50 mM Tris pH 8, 200 mM NaCl, 1 mM DTT, BSA, heparin, 0.05% Tween 20; conditions: tags: N-terminal His-eGFP
9S-S2 PPR = biological target: T2, 9S-S2 PPR; assay: high-throughput RNA pulldown on Ni-NTA beads; HRP: 50 mM Tris pH 8, 150 mM NaCl, 1 mM beta-mercaptoethanol, 50 ug/ml BSA, 3 ug/ml yeast RNA, 0.5% heparin; ITC and FP: Tris pH 8, 200 mM KCl, 5% glycerol; MST: 50 mM Tris pH 8, 200 mM NaCl, 1 mM DTT, BSA, heparin, 0.05% Tween 20; conditions: protein: recombinant; tags: N-terminal TRX-His; label: 5' Cy5
9S = biological target: T3, 9S; assay: as above; conditions: protein: recombinant; tags: N-terminal His-eGFP; label: 5' Cy5
9P-S2 = biological target: T4, 9P-S2; assay: as above; conditions: protein: recombinant; tags: N-terminal TRX-His; label: 5' Cy5
9S-E2 = biological target: T5, 9S-E2; assay: microscale thermophoresis; HRP: 50 mM Tris pH 8, 150 mM NaCl, 1 mM beta-mercaptoethanol, 50 ug/ml BSA, 3 ug/ml yeast RNA, 0.5% heparin; ITC and FP: Tris pH 8, 200 mM KCl, 5% glycerol; MST: 50 mM Tris pH 8, 200 mM NaCl, 1 mM DTT, BSA, heparin, 0.05% Tween 20; conditions: protein: recombinant; tags: N-terminal TRX-His; label: 5' Cy5

Binder	Kd ([1]; label: 5' IRDye 800CW) [nM]	Kd ([1]; label: 5' Cy5) [nM]	other results
AUUAUACGUGA (ssRNA) [IR-rpoA-U]	637		
AUUAAACGUGA (ssRNA) [IR-rpoA-A]	173		
AUUAGACGUGA (ssRNA) [Cy5-rpoA-G]		160	
AUUACACGUGA (ssRNA) [Cy5-rpoA]		241	Kd (9S-S2 PPR): 6.4 nM; Kd (9S): 12 nM; Kd (9P-S2): 68 nM; Kd (9S-E2): 6.8 nM

— paper PMC8809517, “Cofactor-independent RNA editing by a synthetic S-type PPR protein”
